Reference: article doi:10.1101/325035

Biological target: sfGFP-Ensconsin (full length) (Drosophila)
Experiment: TIRF microscopy

fluorescence intensity of K560-mScarlet on microtubules with 25 nM sfGFP-Ensc: 34200 A.U.
Substance: K560-mScarlet (truncated Kinesin-1 motor) (domain or fragment)
